What was measured:
Format in all cases: cell-based, human
[1] = system: CD138+ PMMCs; test: Drug response of CD138+ PMMCs co-cultured with osteoblast (OSB) tissue in 96-well plate-based perfusion culture, viability by flow cytometry; conditions: cultured with OSBs
Method: Using the 96-well plate-based culture platform described in Example 2, osteoblasts (OSBs) (hFOB 1.19 cell line) were cultured for 4 days at 20% O2 tension to form an ossified tissue structure. Patient bone marrow mononuclear cells (BMMCs) containing PMMCs, were seeded on the ossified tissue structure and cultured for up to 5 weeks. […] When O2 tension was decreased to 1%, the proliferation rate of PMMCs decreased (FIG. 2C) while their viability was not compromised (data not shown). […] PMMCs also acquired cell adhesion mediated drug resistance (CAM-DR) due to the adhesive interactions with OSBs.
The response of PMMCs to two commonly used drugs to treat MM patients: (1) carfilzomib, a proteasome inhibitor; and (2) melphalan, which is often used to treat newly diagnosed MM patients along with stem-cell transplantation, was evaluated. OSB tissue was cultured for 4 days either at 1 or 20% O2 prior to seeding of PMMCs. After seeding, PMMC-OSB cultures were dosed with either carfilizomib or melphalan. After 24 h, flow cytometry was used to analyze the viability of CD138+PMMCs. […] Dual Inhibition Of Mcl-1 By The Combination Of Carfilzomib and TG02 In Multiple Myeloma, (2013)). […] British journal of haematology 152, 579-592, doi:10.1111/j.1365-2141.2010.08533.x. (2011); Xiang, Y. et al. Monitoring a Nuclear Factor-κB Signature of Drug Resistance in Multiple Myeloma. […]

[2] = system: CD138+ PMMCs; test: Drug response of CD138+ PMMCs cultured in fibrin; conditions: in contrast to culture with OSBs (FIG. 3B)
Method: The response of PMMCs to two commonly used drugs to treat MM patients: (1) carfilzomib, a proteasome inhibitor; and (2) melphalan, which is often used to treat newly diagnosed MM patients along with stem-cell transplantation, was evaluated. OSB tissue was cultured for 4 days either at 1 or 20% O2 prior to seeding of PMMCs. After seeding, PMMC-OSB cultures were dosed with either carfilizomib or melphalan. After 24 h, flow cytometry was used to analyze the viability of CD138+PMMCs. […] Dual Inhibition Of Mcl-1 By The Combination Of Carfilzomib and TG02 In Multiple Myeloma, (2013)). […] British journal of haematology 152, 579-592, doi:10.1111/j.1365-2141.2010.08533.x. (2011); Xiang, Y. et al. Monitoring a Nuclear Factor-κB Signature of Drug Resistance in Multiple Myeloma. Molecular & Cellular Proteomics 10, doi:10.1074/mcp.M110.005520 (2011)).
In this study, fibrin was used to reconstruct extracellular matrix (ECM) niche tissue containing patient bone marrow mononuclear cells (BMMCs). […]

[3] = system: 3D-osteocytes (OSTs); test: Continuous PTH treatment of 3D-reconstructed osteocytes, relative gene expression; conditions: 50 nM PTH for 2 days, compared to no treatment and 2D-OSTs controls (FIG. 4F)
From the text: Cells and biphasic calcium phosphate (BCP) or polystyrene (PS) microbeads in the range of 20-25 μm (i.e, 20 μm, 21 μm, 22 μm, 23 μm, 24 μm and 25 μm) in diameter were assembled into the culture chamber, via forced liquid withdrawal through the PC membrane, to form a close-packed structure (FIG. 1). […] The cells entrapped within the interstitial spaces between the microbeads formed a 3D cellular network by extending and connecting their processes through openings between the microbeads over 2 weeks. […] The observed O2 tension effects are similar to those reported on the osteocytic differentiation of OSBs (Hirao, M. et al. Oxygen tension is an important mediator of the transformation of osteoblasts to osteocytes. Journal of bone and mineral metabolism 25, 266-276, doi:10.1007/s00774-007-0765-9 (2007); Chen, D. et al. HIF-1alpha inhibits Wnt signaling pathway by activating Sost expression in osteoblasts. PloS one 8, e65940, doi:10.1371/journal.pone.0065940 (2013); Clinkenbeard, E. L. et al. Neonatal iron deficiency causes abnormal phosphate metabolism by elevating FGF23 in normal and ADHR mice. Journal of bone and mineral research: the official journal of the American Society for Bone and Mineral Research 29, 361-369, doi:10.1002/jbmr.2049 (2014)).
In order to characterize the regulatory functions of 3D-osteocytes (OSTs) on osteoclastogenesis and osteoblastic development, the effects of continuous parathyroid hormone (PTH) treatment was evaluated.

In the case of `CC(C)C[C@H](NC(=O)[C@H](CCc1ccccc1)NC(=O)CN1CCOCC1)C(=O)N[C@@H](Cc1ccccc1)C(=O)N[C@@H](CC(C)C)C(=O)[C@@]1(C)CO1` [carfilzomib], the “response (viability) of CD138+ PMMCs to carfilzomib” value ([1]; 100 nM carfilzomib, 20% O2, 24 h, flow cytometry (FIG. 3A)) is reported as “significant resistance”.

With `N[C@@H](Cc1ccc(N(CCCl)CCCl)cc1)C(=O)O` [melphalan] the “response (viability) of CD138+ PMMCs to melphalan” value ([1]; 100 μM melphalan, both 1 and 20% O2, 24 h, flow cytometry (FIG. 3B)) was “highly resistant” and the “sensitivity of CD138+ PMMCs to melphalan” value [2] was “significantly more sensitive”.

B1: parathyroid hormone (protein, UniProt P01270 32-115, looked up)
Parathyroid hormone: SVSEIQLMHNLGKHLNSMERVEWLRKKLQDVHNFVALGAPLAPRDAGSQRPRKKEDNVLVESHEKSLGEADKADVNVLTKAKSQ
modifications: Parathyroid hormone
notes: parathyroid hormone, known to induce OSTs to increase RANKL and decrease OPG and SOST gene expression
With B1 the FGF23 gene expression [3] was “decreased”, the OPG gene expression [3] was “decreased” and the RANKL gene expression [3] was “increased”. The SOST gene expression [3] was “decreased”.
